The values that follow come from PMC4564863.

In series [1] the target is InbR (Rv0275c) (Mycobacterium tuberculosis, UniProt L7N6A2). Nature of the series: biochemical.
Series [2] has as its target T1, InbR (Mycobacterium tuberculosis H37Rv, UniProt L7N6A2 1-241).
T1 sequence: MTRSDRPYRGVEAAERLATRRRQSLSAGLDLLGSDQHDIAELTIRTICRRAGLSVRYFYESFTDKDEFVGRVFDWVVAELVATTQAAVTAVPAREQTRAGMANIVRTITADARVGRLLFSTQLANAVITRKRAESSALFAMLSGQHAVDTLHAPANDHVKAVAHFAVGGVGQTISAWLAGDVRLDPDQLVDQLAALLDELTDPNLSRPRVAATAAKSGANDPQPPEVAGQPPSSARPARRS
Nature of the series: EMSA; 0.25-2 uM InbR. Conditions: protein: recombinant; tags: His6 (pET28a, N-terminal); label: FITC. In general terms: A gel shift assay detects complexes by their altered migration in electrophoresis.

By Kd is commonly meant a measure of binding affinity in units of concentration.

In the case of `NNC(=O)c1ccncc1` [INH, Isoniazid], in series [1], the Kd amounted to 720 nM.

B1: Rv0275cp1 (dsDNA)
DNA 1: TGCCGCTAATTATGGAAACACCTGTATCCTGATATTGGCCGG
DNA 2: CCGGCCAATATCAGGATACAGGTGTTTCCATAATTAGCGGCA
Take B1: in series [2], the binding result is reported as “binds”.

B2: Rv0275cp4 (dsDNA)
DNA 1: TGCCGCTAATTATTTATTTGCCGTGGGAATGATATTGGCCGG
DNA 2: CCGGCCAATATCATTCCCACGGCAAATAAATAATTAGCGGCA
For B2, the binding result in series [2] is on record as “no binding”.
